Laboratory results reported in patent US9487580.

Biological target: T1, recombinant human IL-23 (p19/p40 heterodimer) (human, UniProt Q9NPF7)
T1 chain 1: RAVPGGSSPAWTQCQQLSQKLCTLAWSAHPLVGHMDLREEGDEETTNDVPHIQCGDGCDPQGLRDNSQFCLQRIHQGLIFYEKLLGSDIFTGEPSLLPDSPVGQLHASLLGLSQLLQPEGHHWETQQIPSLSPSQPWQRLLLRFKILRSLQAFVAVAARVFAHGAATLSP
T1 chain 2: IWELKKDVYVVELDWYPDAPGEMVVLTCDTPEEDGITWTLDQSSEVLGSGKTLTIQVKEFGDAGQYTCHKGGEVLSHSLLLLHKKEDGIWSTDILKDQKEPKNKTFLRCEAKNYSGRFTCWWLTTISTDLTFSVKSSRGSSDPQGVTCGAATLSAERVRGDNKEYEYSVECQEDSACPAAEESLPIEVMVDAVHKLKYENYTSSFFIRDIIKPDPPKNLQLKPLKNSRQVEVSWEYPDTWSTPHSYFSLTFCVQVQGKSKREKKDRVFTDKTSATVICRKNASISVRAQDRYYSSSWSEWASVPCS
Experiment: KinExA

B1: Antibody B (antibody, V domains shown)
VH: QVQLQESGPGLVKPSQTLSLTCTVSGGSISSGGYYWSWIRQHPGKGLEWIGHIHYSGNTYYNPSLKSRVTISVDTSKNQFSLKLSSVTAADTAVYYCARNRGFYYGMDVWGQGTTVTVSS
VL: DIQMTQSPSSVSASVGDRVTITCRASQVISSWLAWYQQKPGKAPSLLIYAASSLQSGVPSRFSGSVSGTDFTLTISSLQPEDFATYYCQQANSFPFTFGPGTKVDFK
Kd: 3.99 pM
